Measurements reported in patent US20040191240A1 (published 2004).

Target: T1, amino-terminally FLAG-tagged human p75 (human, UniProt P08138 29-427)
T1 construct: also called FLAG-tagged p75; FLAG-p75; not shown: FLAG tag at the amino terminus
T1 sequence: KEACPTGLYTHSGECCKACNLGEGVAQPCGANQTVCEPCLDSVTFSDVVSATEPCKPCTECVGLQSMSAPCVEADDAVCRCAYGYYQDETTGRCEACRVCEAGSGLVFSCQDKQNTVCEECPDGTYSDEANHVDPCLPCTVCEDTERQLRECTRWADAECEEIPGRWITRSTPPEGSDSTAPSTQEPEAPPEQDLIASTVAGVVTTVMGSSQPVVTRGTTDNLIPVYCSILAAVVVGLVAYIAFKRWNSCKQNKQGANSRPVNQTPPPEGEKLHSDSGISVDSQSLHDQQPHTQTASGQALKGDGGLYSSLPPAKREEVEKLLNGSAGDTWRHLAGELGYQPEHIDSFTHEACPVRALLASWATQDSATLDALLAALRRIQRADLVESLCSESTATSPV
Assay: competition: Pep5 at several concentrations against 1 uM GST-Rho GDI for immunoprecipitated p75

B1: Pep5 (peptide)
peptide: CFFRGGFFNHNPRYC
notes: Chemically synthesized 15-residue peptide; also called peptide ligand to the p75 HD
binding result: binds
